The source of these data is the Human Domainome abundance scans (Beltran et al. 2025).

± gives the uncertainty stated by the source.

Sequences and labels used below:
B1: Ankyrin-2, residues 3571 to 3650; numbered along this chain, Q01484 (parent)
chain: ERLAYIADHLGFSWTELARELDFTEEQIHQIRIENPNSLQDQSHALLKYWLERDGKHATDTNLVECLTKINRMDIVHLME

The variants in this data set derive from B1. The experiment in a line: abundance fitness (aPCA) (normalised: wild type 0, dead -1); higher = more abundant; growth selection in yeast, the domain comes from the species named. The following applies: Homo sapiens.
On to ERLAYIADHLGFSWPELARELDFTEEQIHQIRIENPNSLQDQSHALLKYWLERDGKHATDTNLVECLTKINRMDIVHLME [T15P], for which the abundance fitness stood at 0.01 ± 0.063.
Consider ERLAYIADHLGFSWKELARELDFTEEQIHQIRIENPNSLQDQSHALLKYWLERDGKHATDTNLVECLTKINRMDIVHLME [T15K], for which the abundance fitness is 0.079 ± 0.14.
Turning to ERLAYIADHLGFSWWELARELDFTEEQIHQIRIENPNSLQDQSHALLKYWLERDGKHATDTNLVECLTKINRMDIVHLME [T15W], the abundance fitness is -0.058 ± 0.077.
As to ERLAYIADHLGFSWRELARELDFTEEQIHQIRIENPNSLQDQSHALLKYWLERDGKHATDTNLVECLTKINRMDIVHLME [T15R], the abundance fitness was -0.057 ± 0.059.
With ERLAYIADHLGFSWSELARELDFTEEQIHQIRIENPNSLQDQSHALLKYWLERDGKHATDTNLVECLTKINRMDIVHLME [T15S], the abundance fitness worked out at 0.018 ± 0.053.
As for ERLAYIADHLGFSWLELARELDFTEEQIHQIRIENPNSLQDQSHALLKYWLERDGKHATDTNLVECLTKINRMDIVHLME [T15L], the figure is 0.036 ± 0.061; as for ERLAYIADHLGFSWVELARELDFTEEQIHQIRIENPNSLQDQSHALLKYWLERDGKHATDTNLVECLTKINRMDIVHLME [T15V], -0.009 ± 0.072.
As to ERLAYIADHLGFSWYELARELDFTEEQIHQIRIENPNSLQDQSHALLKYWLERDGKHATDTNLVECLTKINRMDIVHLME [T15Y], the abundance fitness was -0.433 ± 0.43.
On to ERLAYIADHLGFSWEELARELDFTEEQIHQIRIENPNSLQDQSHALLKYWLERDGKHATDTNLVECLTKINRMDIVHLME [T15E], for which the abundance fitness is -0.185 ± 0.15.
On to ERLAYIADHLGFSWCELARELDFTEEQIHQIRIENPNSLQDQSHALLKYWLERDGKHATDTNLVECLTKINRMDIVHLME [T15C], for which the abundance fitness was -0.062 ± 0.12.
On to ERLAYIADHLGFSWQELARELDFTEEQIHQIRIENPNSLQDQSHALLKYWLERDGKHATDTNLVECLTKINRMDIVHLME [T15Q], for which the abundance fitness is -0.083 ± 0.15.
Turning to ERLAYIADHLGFSWNELARELDFTEEQIHQIRIENPNSLQDQSHALLKYWLERDGKHATDTNLVECLTKINRMDIVHLME [T15N], the abundance fitness is -0.038 ± 0.21.
For ERLAYIADHLGFSWAELARELDFTEEQIHQIRIENPNSLQDQSHALLKYWLERDGKHATDTNLVECLTKINRMDIVHLME [T15A], the abundance fitness was -0.02 ± 0.055.
Consider ERLAYIADHLGFSWFELARELDFTEEQIHQIRIENPNSLQDQSHALLKYWLERDGKHATDTNLVECLTKINRMDIVHLME [T15F], for which the abundance fitness was -0.277 ± 0.12.
Regarding ERLAYIADHLGFSWGELARELDFTEEQIHQIRIENPNSLQDQSHALLKYWLERDGKHATDTNLVECLTKINRMDIVHLME [T15G], the abundance fitness is -0.042 ± 0.06.
On to ERLAYIADHLGFSWHELARELDFTEEQIHQIRIENPNSLQDQSHALLKYWLERDGKHATDTNLVECLTKINRMDIVHLME [T15H], for which the abundance fitness is -0.309 ± 0.2.
For the variant ERLAYIADHLGFSWMELARELDFTEEQIHQIRIENPNSLQDQSHALLKYWLERDGKHATDTNLVECLTKINRMDIVHLME [T15M], the abundance fitness is -0.21 ± 0.13.
In the case of ERLAYIADHLGFSWDELARELDFTEEQIHQIRIENPNSLQDQSHALLKYWLERDGKHATDTNLVECLTKINRMDIVHLME [T15D], the abundance fitness was -0.195 ± 0.19.
As to ERLAYIADHLGFSWTHLARELDFTEEQIHQIRIENPNSLQDQSHALLKYWLERDGKHATDTNLVECLTKINRMDIVHLME [E16H], the abundance fitness came out at 0.028 ± 0.17.
Take ERLAYIADHLGFSWTTLARELDFTEEQIHQIRIENPNSLQDQSHALLKYWLERDGKHATDTNLVECLTKINRMDIVHLME [E16T]: the abundance fitness worked out at 0.038 ± 0.12.
For the variant ERLAYIADHLGFSWTWLARELDFTEEQIHQIRIENPNSLQDQSHALLKYWLERDGKHATDTNLVECLTKINRMDIVHLME [E16W], the abundance fitness was -0.297 ± 0.12.
As for ERLAYIADHLGFSWTPLARELDFTEEQIHQIRIENPNSLQDQSHALLKYWLERDGKHATDTNLVECLTKINRMDIVHLME [E16P], the figure is -0.233 ± 0.075; as for ERLAYIADHLGFSWTGLARELDFTEEQIHQIRIENPNSLQDQSHALLKYWLERDGKHATDTNLVECLTKINRMDIVHLME [E16G], -0.065 ± 0.057.
For the variant ERLAYIADHLGFSWTMLARELDFTEEQIHQIRIENPNSLQDQSHALLKYWLERDGKHATDTNLVECLTKINRMDIVHLME [E16M], the abundance fitness was -0.056 ± 0.11.
Turning to ERLAYIADHLGFSWTLLARELDFTEEQIHQIRIENPNSLQDQSHALLKYWLERDGKHATDTNLVECLTKINRMDIVHLME [E16L], the abundance fitness is 0.032 ± 0.07.
On to ERLAYIADHLGFSWTRLARELDFTEEQIHQIRIENPNSLQDQSHALLKYWLERDGKHATDTNLVECLTKINRMDIVHLME [E16R], for which the abundance fitness came to 0.026 ± 0.054.
In the case of ERLAYIADHLGFSWTVLARELDFTEEQIHQIRIENPNSLQDQSHALLKYWLERDGKHATDTNLVECLTKINRMDIVHLME [E16V] it was -0.104 ± 0.091.
In the case of ERLAYIADHLGFSWTFLARELDFTEEQIHQIRIENPNSLQDQSHALLKYWLERDGKHATDTNLVECLTKINRMDIVHLME [E16F], the abundance fitness is -0.09 ± 0.13.
Turning to ERLAYIADHLGFSWTILARELDFTEEQIHQIRIENPNSLQDQSHALLKYWLERDGKHATDTNLVECLTKINRMDIVHLME [E16I], the abundance fitness was 0.061 ± 0.22.
As for ERLAYIADHLGFSWTSLARELDFTEEQIHQIRIENPNSLQDQSHALLKYWLERDGKHATDTNLVECLTKINRMDIVHLME [E16S], the figure is -0.028 ± 0.05.
Consider ERLAYIADHLGFSWTQLARELDFTEEQIHQIRIENPNSLQDQSHALLKYWLERDGKHATDTNLVECLTKINRMDIVHLME [E16Q], for which the abundance fitness was 0.202 ± 0.098.
In the case of ERLAYIADHLGFSWTNLARELDFTEEQIHQIRIENPNSLQDQSHALLKYWLERDGKHATDTNLVECLTKINRMDIVHLME [E16N], the abundance fitness was found to be 0.026 ± 0.17.
With ERLAYIADHLGFSWTDLARELDFTEEQIHQIRIENPNSLQDQSHALLKYWLERDGKHATDTNLVECLTKINRMDIVHLME [E16D], the abundance fitness turned out to be 0.053 ± 0.12.
For ERLAYIADHLGFSWTALARELDFTEEQIHQIRIENPNSLQDQSHALLKYWLERDGKHATDTNLVECLTKINRMDIVHLME [E16A], the abundance fitness was -0.037 ± 0.066.
